T1: ERRα1 (estrogen-related receptor alpha 1, NR3B1) (Homo sapiens, UniProt P11474 P11474:1-423)
T1 sequence: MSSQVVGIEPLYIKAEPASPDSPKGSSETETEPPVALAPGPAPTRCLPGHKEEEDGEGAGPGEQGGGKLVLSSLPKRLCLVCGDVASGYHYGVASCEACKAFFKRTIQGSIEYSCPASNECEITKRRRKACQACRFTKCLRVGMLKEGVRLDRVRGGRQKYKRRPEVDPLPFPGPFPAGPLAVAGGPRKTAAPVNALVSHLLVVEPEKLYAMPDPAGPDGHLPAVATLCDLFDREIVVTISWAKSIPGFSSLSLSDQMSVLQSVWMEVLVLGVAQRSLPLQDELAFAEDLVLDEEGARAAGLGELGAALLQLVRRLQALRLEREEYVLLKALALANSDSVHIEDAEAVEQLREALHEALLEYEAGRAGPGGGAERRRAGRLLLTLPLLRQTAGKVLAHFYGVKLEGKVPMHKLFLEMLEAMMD

B1: ERβ promoter site (dsDNA)
DNA 1: GGTGCTCCCACTTAGAGGTCACGCGCGGCGTCG
DNA 2: CGACGCCGCGCGTGACCTCTAAGTGGGAGCACC
B2: PgR site 2 (dsDNA)
DNA 1: TCCTTGCTAAACCCAAGGTCATAAATCTTTTCT
DNA 2: AGAAAAGATTTATGACCTTGGGTTTAGCAAGGA
B3: elk1 site (dsDNA)
DNA 1: CTCCCATCTCACTTAAGGTCAAAGCCAGGGTCC
DNA 2: GGACCCTGGCTTTGACCTTAAGTGAGATGGGAG
B4: pS2 site 2 (dsDNA)
DNA 1: GTAGGACCTGGATTAAGGTCAGGTTGGAGGAGA
DNA 2: TCTCCTCCAACCTGACCTTAATCCAGGTCCTAC
B5: PgR site 3 (dsDNA)
DNA 1: TCCTAAGGACTGTCAAGGTCATCAAATACAAGG
DNA 2: CCTTGTATTTGATGACCTTGACAGTCCTTAGGA
B6: pS2 site 1 (dsDNA)
DNA 1: TCCCTTCCCCCTGCAAGGTCACGGTGGCCACCC
DNA 2: GGGTGGCCACCGTGACCTTGCAGGGGGAAGGGA
B7: ErbB2 ERRE (dsDNA)
DNA 1: AAAGGAACTTTCCCAAGGTCACAGAGCTGAGCT
DNA 2: AGCTCAGCTCTGTGACCTTGGGAAAGTTCCTTT
B8: Prolactin site 2 (dsDNA)
DNA 1: CAAATTTGAAACTAAAGGTCACAGGCTGCTTTA
DNA 2: TAAAGCAGCCTGTGACCTTTAGTTTCAAATTTG
B9: cyclin D1 site (dsDNA)
DNA 1: GCGAGGAAAGCGTGAAGGTGATTTCAGTTAATT
DNA 2: AATTAACTGAAATCACCTTCACGCTTTCCTCGC
B10: hMDM2 site (dsDNA)
DNA 1: GGGAGTTCAGGGTAAAGGTCACGGGGCCGGGGC
DNA 2: GCCCCGGCCCCGTGACCTTTACCCTGAACTCCC
B11: Prolactin site 3 (dsDNA)
DNA 1: CCTCAGAGTGGCTCAGGGTCAGAGAAGGTAGAG
DNA 2: CTCTACCTTCTCTGACCCTGAGCCACTCTGAGG
B12: Prolactin site 1 (dsDNA)
DNA 1: TGTCCATTTTCTTCTAGGTCAACCCCAATGGTA
DNA 2: TACCATTGGGGTTGACCTAGAAGAAAATGGACA
B13: BRCA1 site (dsDNA)
DNA 1: GTAATTGCTGTACGAAGGTCAGAATCGCTACCT
DNA 2: AGGTAGCGATTCTGACCTTCGTACAGCAATTAC
B14: BRCA2 site (dsDNA)
DNA 1: AGAACATCCCTTTTAAGGTCAGAACAAAGGTAT
DNA 2: ATACCTTTGTTCTGACCTTAAAAGGGATGTTCT
B15: Cathepsin D site (dsDNA)
DNA 1: TGGCATATTGGGTGAAGGTCAAGGGAGTGGCTT
DNA 2: AAGCCACTCCCTTGACCTTCACCCAATATGCCA
B16: IGF2 site 2 (dsDNA)
DNA 1: CTGTCGGCAGGAACAAGGTCACCCCTTGGCGTT
DNA 2: AACGCCAAGGGGTGACCTTGTTCCTGCCGACAG
B17: PgR site 1 (dsDNA)
DNA 1: AAAATTGTTTTGTCTAGGTCATTTGCATTTTCA
DNA 2: TGAAAATGCAAATGACCTAGACAAAACAATTTT
B18: aromatase site (dsDNA)
DNA 1: CCTGAGACTCTACCAAGGTCAGAAATGCTGCAA
DNA 2: TTGCAGCATTTCTGACCTTGGTAGAGTCTCAGG
B19: EGF site (dsDNA)
DNA 1: CAAATAATGGGCTGAAGGTGAACTATCTTTACT
DNA 2: AGTAAAGATAGTTCACCTTCAGCCCATTATTTG
B20: ERα promoter site (dsDNA)
DNA 1: ATGTTTGGTATGAAAAGGTCACATTTTATATTC
DNA 2: GAATATAAAATGTGACCTTTTCATACCAAACAT
B21: IGF2 site 3 (dsDNA)
DNA 1: GGTGGACGCTGCTGAAGGTGAGCGAGACCCCGG
DNA 2: CCGGGGTCTCGCTCACCTTCAGCAGCGTCCACC
B22: IGF1R site (dsDNA)
DNA 1: GCTCCGGCTCGCTGAAGGTCACAGCCGAGGCGA
DNA 2: TCGCCTCGGCTGTGACCTTCAGCGAGCCGGAGC
B23: Consensus palindromic ERE (dsDNA)
DNA 1: TAAGCTTAGGTCACAGTGACCTAAGCTTA
DNA 2: TAAGCTTAGGTCACTGTGACCTAAGCTTA

What follows are binders tested against T1, ERRα1 (estrogen-related receptor alpha …) (assay: competition; competition EMSA, COS extract). Conditions: tags: COS / COS-M6 whole-cell extract, pcDNA3.1-hERRα1 or pRSV-hERRα1.

Point of comparison: B3, binding signal 0.22 RBA vs reference ERRE. Against it:
- B1 — higher, 0.54 RBA vs reference ERRE
- B2 — higher, 0.91 RBA vs reference ERRE
- B4 — lower, 0.12 RBA vs reference ERRE
- B5 — higher, 1.45 RBA vs reference ERRE
- B6 — higher, 0.49 RBA vs reference ERRE
- B7 — higher, 1.01 RBA vs reference ERRE
- B8 — higher, 0.33 RBA vs reference ERRE
- B9 — lower, 0.07 RBA vs reference ERRE
- B10 — higher, 0.35 RBA vs reference ERRE
- B11 — lower, 0.07 RBA vs reference ERRE
- B12 — lower, 0.06 RBA vs reference ERRE
- B13 — lower, 0.17 RBA vs reference ERRE
- B14 — lower, 0.08 RBA vs reference ERRE
- B15 — higher, 0.49 RBA vs reference ERRE
- B16 — higher, 0.25 RBA vs reference ERRE
- B17 — lower, 0.14 RBA vs reference ERRE
- B18 — lower, 0.17 RBA vs reference ERRE
- B19 — lower, 0.14 RBA vs reference ERRE
- B20 — lower, 0.11 RBA vs reference ERRE
- B21 — lower, 0.06 RBA vs reference ERRE
- B22 — higher, 0.36 RBA vs reference ERRE

Each binder was assayed against T1, ERRα1 (estrogen-related receptor alpha …) (assay: cell_activity; HeLa, 3xERE-TK-luc reporter). Conditions: tags:.
Method: Transient Transfections and Luciferase Assays: To assess the role ERRα plays in regulating transcription of an ERE-containing promoter, MCF-7 or HeLa cells grown in 12-well tissue culture plates were co-transfected in parallel with 0.5 μg of pTK-luc versus p3xERE-TK-luc along with the indicated amounts of the empty cloning vector pcDNA3.1, the ERRα1 expression plasmid pcDNA3.1-hERRα1, or mutant variants thereof. […] Cells were harvested 48 h post-transfection, and lysates were assayed for luciferase activity normalized to protein concentration as previously described (36).
To determine whether the transcriptional repression observed here was dependent upon the cell line, we repeated the cotransfection experiments as described above except using ER-negative HeLa cells in place of ER-positive MCF-7 cells (FIG. 19).

Binder B23 has an activity of 2.5 fold activation.
